# The RNAGym collection of RNA variant scans (doi:10.1021/acssynbio.7b00057)
# B1: Pistol ribozyme (parent)
# chain: GGGUCGUUGUUCCAUAAUCGCGUGGAUAUGGCACGCAAGUUUCUACCGGGCACCGUAAAUGUCCGACUGGAGCCGUUCGGGCGGCUAUAAACAGACCUCAGGCCCGAAGCGUGGCGGCACCUGCCGCCGGUGGUAAAAAAGAUCGGAAGAGCACACGUCU
# Variants of: B1
# Assay: aptazyme ON/OFF ratio, guanine; higher = stronger switching; co-transcriptional cleavage with and without guanine
row,Variant,aptazyme ON/OFF ratio
1,G9U U10G U11G C12G C13G,1.31
2,G9U U10G U11G C12G C13A,1.25
3,G9C U10G U11G,1.09
4,G9C U10G U11C,1.06
5,G9U C13A,1.34
6,G9U C13U,2.07
7,G9U C13G,1.09
8,G9U U10G U11G C12U C13U,1.34
9,G9U U10G U11G C12U C13A,1.1
10,G9U U10G U11G C12U C13G,1.17
11,G9U U11A C12A C13U,1.23
12,G9U U11A C12A C13A,1.59
13,G9U U11A C12A C13G,1.31
14,G9U U11A C12G C13A,1.82
15,G9U U11A C12G C13U,1
16,G9U U11A C12G C13G,1.2
17,G9C U11A C12U,1.53
18,G9C U11A C12A,1.34
19,G9C U11A C12G,1.47
20,G9U U10G U11G C13A,1.25
21,G9U U10G U11G C13U,1.26

row,Variant,aptazyme ON/OFF ratio
1,G9U U10G U11G C13G,1.19
2,G9U U10G U11A C12U C13U,1.85
3,G9U U10G U11A C12U C13G,1.24
4,G9U U10G U11A C12U C13A,1.21
5,G9C U11C C12A C13G,1.09
6,G9C U11C C12A C13U,1.16
7,G9C U11C C12A C13A,1.12
8,G9U U10A U11G C12A C13G,1.37
9,G9U U10A U11G C12A C13A,1.14
10,G9U U10A U11G C12A C13U,1.25
11,G9U U10C U11A C12G C13U,1.27
12,G9U U10C U11A C12G C13G,1.43
13,G9U U10C U11A C12G C13A,1.48
14,G9C U10G U11A C12U,1.04
15,G9C U10G U11A C12G,1.27
16,G9U U10C C12A C13G,1.61
17,G9U U10C C12A C13U,1.38
18,G9U U10C C12A C13A,1.39
19,G9U U10G U11A,1.2
20,G9U U10G U11C,1.28
21,G9U U10G U11G,1.55

row,Variant,aptazyme ON/OFF ratio
1,G9C U10G U11G C12G C13A,1.1
2,G9C U10G U11G C12G C13U,1.1
3,G9C U10G U11G C12G C13G,1.13
4,G9C U11A C12A C13G,1.12
5,G9C U11A C12A C13U,1.3
6,G9C U11A C12A C13A,1.26
7,G9U U10C U11C C13G,1.06
8,G9U U10C U11C C13A,1.04
9,G9U U10C U11C C13U,1.03
10,G9U C12A C13U,1.1
11,G9U C12A C13A,1.63
12,G9U C12A C13G,1.45
13,G9C U11G C12U C13U,1.41
14,G9C U11G C12U C13A,1.3
15,G9C U11G C12U C13G,1.25
16,G9C U11C C13A,1.06
17,G9C U11C C13G,1.03
18,G9C U11C C13U,1.04
19,G9C U11C C12G C13G,1.09
20,G9C U11C C12G C13A,1.13
21,G9C U11C C12G C13U,1.19

row,Variant,aptazyme ON/OFF ratio
1,G9U U11A C13G,1.13
2,G9U U11A C13U,1.44
3,G9U U11A C13A,1.48
4,G9U U10A U11C C13A,1.53
5,G9U U10A U11C C13U,1.17
6,G9U U10A U11C C13G,1.04
7,G9U U10A C12U C13G,1.1
8,G9U U10A C12U C13U,1.06
9,G9U U10A C12U C13A,0.769
10,G9U U10A U11C C12G C13G,0.978
11,G9U U10A U11C C12G C13U,1.47
12,G9U U10A U11C C12G C13A,1.3
13,G9U U10A,3.18
14,G9U U10G,4.12
15,G9U U10C,4.48
16,G9U U11C C12U C13G,1.23
17,G9U U11C C12U C13U,1.34
18,G9U U11C C12U C13A,1.51
19,G9C U10G U11C C12G,1.17
20,G9C U10G U11C C12U,1.08
21,G9C U10G U11C C12A,1.37
